In patent publication US20150266956A1 (UNIVERSITY OF ROCHESTER, published 2015):

Molecular target: T1, murine DC-STAMP (dendritic cell-specific transmembrane protein) (mouse, UniProt Q7TNJ0 1-470)
T1 construct: whole, on cells; Endogenous protein; In the immunoprecipitation and immunoblot it came from cell lysates (about 50 kDa reduced, about 100 kDa non-reduced); also called mouse DC-STAMP
T1 sequence (looked up): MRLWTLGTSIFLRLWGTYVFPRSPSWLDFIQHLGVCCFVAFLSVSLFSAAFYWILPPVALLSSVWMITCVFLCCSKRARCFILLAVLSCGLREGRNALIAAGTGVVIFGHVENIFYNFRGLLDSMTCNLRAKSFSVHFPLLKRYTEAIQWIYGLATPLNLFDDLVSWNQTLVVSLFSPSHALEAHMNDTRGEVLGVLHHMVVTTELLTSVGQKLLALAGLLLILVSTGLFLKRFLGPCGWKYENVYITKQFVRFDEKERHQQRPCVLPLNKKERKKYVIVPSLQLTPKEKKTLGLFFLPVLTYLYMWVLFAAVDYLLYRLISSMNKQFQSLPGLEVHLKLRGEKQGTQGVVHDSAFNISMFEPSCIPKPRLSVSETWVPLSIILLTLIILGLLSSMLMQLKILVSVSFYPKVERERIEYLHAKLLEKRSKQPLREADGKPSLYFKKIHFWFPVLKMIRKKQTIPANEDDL
Test: immunoprecipitation and immunoblot of RANKL-treated CD11b+ RAW 264.7 cell lysate (FIG. 1A)
Experimental: After immunoprecipitation with the 1A2 mAb, immunoblotting was performed with either the 1A2 mAb, the KR104 rabbit polyclonal antibody (positive control), or an anti-mouse IgG antibody (negative control) under non-reducing (nr: −β-mercaptoethanol) or reducing (r: +β-mercaptoethanol) conditions. M: protein marker, black and white scanned overlay. Blot is representative of 4 separate trials. […] Numbers below bands represent densitometry values used as a semiquantitative measure of relative protein level. Blot is representative of 2 separate trials.
To study surface protein expression, a mAb was generated against a peptide in the fourth extracellular domain of DC-STAMP. For comparison, a polyclonal DC-STAMP antibody was used that has histologically shown surface expression on OC (Kukita et al., J. Exp. Med. 200:941-6 (2004)). CD11b+ cells were cultured for 2 days with RANKL and extracted membrane fraction proteins for immunoprecipitation with the 1A2 mAb. […] Both antibodies also recognize a protein at double the molecular weight (˜100 kDa) under non-reducing (nr) conditions. In both reducing and non-reducing conditions, the 1A2 DC-STAMP mAb has a more intense band for the same amount of protein loaded in each lane. […] The 1A2 mAb clone was conjugated to FITC and used to determine if surface membrane DC-STAMP on CD11b+ cells could be detected by flow cytometry.

B1: DC-STAMP monoclonal antibody 1A2 (antibody, V domains shown)
VH: QVTLKESGPGILQPSQTLSLTCSFSGFSLSTFGMGVGWIRQPSGKGLEWLAHIWWDDDKYYSPALKSRLTISKDTSKNQVFLKIANVDTADTATYYCVRIGSRSPFAYWGPGTLVTVSS
VL: DIVMTQAAFSNPVTLGTSASISCRSSKSLLHSNGITYLYWYLQKPGQSPQVLIYQMSNLASGVPDRFSSSGSGTDFTLRISRVEAEDVGVYYCAQNLELPWTFGGGTKLEIKR
notes: The antibody was FITC-conjugated for flow cytometry and immunofluorescence; also called 1A2 mAb; clone 1A2
binding result: binds
